Measurements reported in the supplement of paper PMC7877785.
± gives the uncertainty stated by the source.

Assay: self-splicing fitness, log relative to wild type (ln ratio); higher = more splicing; Tetrahymena group I intron in knt gene, E. coli kanamycin selection, DiMSum; sequences stand for … in CUCUCU…GGAGGGAAAAGUUAUCAGGCAUGCACCUGGUAGCUAGUCUUUAAACCAAUAGAUUGCAUCGGUUUAAAAGGCAAGACCGUCAAAUUGCGGGAAAGGGGUCAACAGCCGUUCAGUACCAAGUCUCAGGGGAAACUUUGAGAUGGCCUUGCAAAGGGUAUGGUAAUAAGCUGACGGACAUGGUCCUAACCACGCAGCCAAGUCCUAAGUCAACAGAUCUUCUGUUGAUAUGGAUGCAGUUCACAGACUAAAUGUCGGUCGGGGAAGAUGUAUUCUUCUCAUAAGAUAUAGUCGGACCUCUCCUUAAUGGGAGCUAGCGGAUGAAGUGAUGCAACACUGGAGCCGCUGGGAACUAAUUUGUAUGCGAAAGUAUAUUGAUUAGUUUUGGAGUACUCGUGGUCG
Summary of the method: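 Pooled colonies went to amplicon sequencing on an Illumina HiSeq 2500 after six replicate transformations. The plates were LB agar with 100 μg/mL carbenicillin, 50 μM IPTG and 0.2% rhamnose, with or without 25 μg/mL kanamycin, incubated overnight at 37°C or 30°C. The E. coli BL21(DE3) library had all eight P1ex-region intron nucleotides randomised, the intron placed in the knt kanamycin-resistance gene on pET-22b(+). DiMSum fitness is the error-weighted combination of replicate fold changes, kanamycin against none, normalised to wild type.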

Sequence	self-splicing fitness (ln) (30 °C)	self-splicing fitness (ln) (37 °C)
UGCUAGCAAUAUUACGAUUU	-2.4 ± 0.18	-1.1 ± 0.16
UGCUAGCAAUAUUACGCCUG	-0.427 ± 0.18	0.294 ± 0.2
UGCUAGCAAUAUUACGCGUU	-1.7 ± 0.14	-0.563 ± 0.14
UGCUAGCAAUAUUACGCUAA	-1.85 ± 0.13	-1.55 ± 0.16
UGCUAGCAAUAUUACGGACC	0.158 ± 0.22	-1.06 ± 0.22
UGCUAGCAAUAUUACGGCCA	-0.186 ± 0.11	-0.178 ± 0.15
UGCUAGCAAUAUUACGGGAU	-3.68 ± 0.19	-1.76 ± 0.14
UGCUAGCAAUAUUACGGGCU	-2.57 ± 0.13	-1.89 ± 0.14
UGCUAGCAAUAUUACGGUGG	-1.94 ± 0.066	-1.33 ± 0.086
UGCUAGCAAUAUUACGUAAA	-1.9 ± 0.094	-1.6 ± 0.13
UGCUAGCAAUAUUACGUAAG	-2.3 ± 0.19	-1.35 ± 0.18
UGCUAGCAAUAUUACGUCAC	-3.62 ± 0.19	-2.74 ± 0.22
UGCUAGCAAUAUUACGUCCA	-0.211 ± 0.06	-0.404 ± 0.09
UGCUAGCAAUAUUACGUCCC	-3.34 ± 0.18	-0.521 ± 0.12
UGCUAGCAAUAUUACGUUAU	-2.22 ± 0.16	-2.33 ± 0.23
UGCUAGCAAUAUUACGUUUG	-1.48 ± 0.074	-0.163 ± 0.092
UGGAAGCAAUAUUACGAGAA	-2.05 ± 0.43	-1.73 ± 0.3
UGGAAGCAAUAUUACGAGCG	0.103 ± 0.11	0.127 ± 0.15
UGGAAGCAAUAUUACGAUAG	-2.51 ± 0.2	-0.419 ± 0.17

Sequence	self-splicing fitness (ln) (30 °C)	self-splicing fitness (ln) (37 °C)
UGGAAGCAAUAUUACGAUUC	-3.18 ± 0.3	–
UGGAAGCAAUAUUACGCAAC	-3.31 ± 0.32	-2.05 ± 0.27
UGGAAGCAAUAUUACGCUGU	-2.58 ± 0.41	-2.3 ± 0.49
UGGAAGCAAUAUUACGCUUA	-1.39 ± 0.13	0.125 ± 0.15
UGGAAGCAAUAUUACGGAUG	-0.948 ± 0.098	-0.832 ± 0.12
UGGAAGCAAUAUUACGGCGC	-1.23 ± 0.22	-0.241 ± 0.22
UGGAAGCAAUAUUACGGGGA	-2.19 ± 0.15	-2.16 ± 0.16
UGGAAGCAAUAUUACGUACU	-0.516 ± 0.094	-0.023 ± 0.098
UGGAAGCAAUAUUACGUCCU	-0.91 ± 0.2	-0.584 ± 0.21
UGGAAGCAAUAUUACGUGGC	-3.41 ± 0.25	-2.71 ± 0.33
UGGAAGCAAUAUUACGUUGA	-2.36 ± 0.17	-2.01 ± 0.2
UGGCAGCAAUAUUACGAACA	-0.346 ± 0.11	0.139 ± 0.13
UGGCAGCAAUAUUACGACAU	-1.746 ± 0.014	-0.812 ± 0.033
UGGCAGCAAUAUUACGACCG	-0.969 ± 0.27	-0.245 ± 0.42
UGGCAGCAAUAUUACGACGA	-0.192 ± 0.12	-0.159 ± 0.14
UGGCAGCAAUAUUACGAGCA	-0.315 ± 0.098	-0.218 ± 0.12
UGGCAGCAAUAUUACGAGUG	-1.19 ± 0.11	0.196 ± 0.12
UGGCAGCAAUAUUACGAUCG	0.335 ± 0.067	1.02 ± 0.1
